For this experiment, the target named is TAMRA‐NOP‐1 (EIN2 NLS peptide, N‐terminally labeled with 5‐TAMRA) (Arabidopsis thaliana). Put plainly: fluorescence polarisation; direct titration: TAMRA-NOP-1 constant at 250 nM, IMPα protein concentration varied; 50 μL samples; LS55 spectrometer; Kd by Logistic Fit in Origin; three independent measurements. On the technique in general: In fluorescence polarisation assays a small probe gives low polarisation when free and higher when bound to something large.

This is an account of results in paper PMC12871931, “The importin‐alpha superfamily engages in ethylene signaling by shuttling ETHYLENE INSENSITIVE 2 from the endoplasmic reticulum to the nucleus” (The Febs Journal, 2025).

One may read the Kd as the concentration at which binding is half-saturated. Low values mean tighter binding, high ones weaker binding.

As to “ΔIBB_IMPα1 (importin α1 lacking the IBB domain), Arabidopsis thaliana, recombinant (domain or fragment)”, the Kd is 3.2 µM. “IMPα7_ΔIBB (importin α7 lacking the N-terminal importin β binding domain), Arabidopsis thaliana, recombinant (domain or fragment)” came in with a Kd of 3 µM.
